How the values were obtained:
human CD81 (human) = human CD81 (human) (UniProt P60033); assay: cell-based or functional assay
[1] = target: HCV E2 glycoprotein of genotype 1a (Hepatitis C virus genotype 1a) (UniProt P27958); assay: cell-based or functional assay

Substance: JS-81 anti-CD81 monoclonal antibody (Pharmingen)
- inhibition of infection by HCVpp of genotypes 1a and 1b after pre-incubation of the target cells with antibody (30 µg/ml) (human CD81 (human)): > 90%

Substance: recombinant GST-fusion polypeptide encompassing the large extra-cellular loop (LEL) of human CD81 (from UniProt P60033 113-201)
- inhibition of infectivity of HCVpp on Huh-7 cells (hCD81-LEL at 4, 8, 16 µg/ml pre-incubated with the particles) [1]: 38 to 54%

Reference: patent publication EP1398371A1
